The values that follow come from the nanobody polyreactivity screen of Harvey et al. (2022).

This data set in a line: yeast display, Sf9 membrane polyspecificity reagent, FACS + sequencing; frameworks hold sequencing errors. An outline of the steps: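 A synthetic nanobody library was expressed on Saccharomyces cerevisiae BJ5465 by galactose induction for 36–48 hours. The library was stained for 1 hour at 4 °C with 10% biotinylated, detergent-solubilized Sf9 membrane reagent and enriched with streptavidin microbeads before FACS. Low and high (top ~1%) gates were set on anti-HA fluorescence for expression and streptavidin fluorescence for reagent binding, and each polyreactivity label reflects the gate of origin.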
Take “QVQLVESGGGLVQAGGRLRLSCAASGSILGAYTMGWYRQAPGKERELVAAITRRGGSTYYSDSVKGRFTISRDNAKNTVYLQMNSLKPEDTAVYYCNAEYGVWYDYLVGPYDYWGQGNQVTVSS”: the “polyreactivity (PSR sort gate)” value is listed as “low polyreactivity”.
Regarding “QVQLVESGGGLVQAGGRLRLSCAASGSTFGGNAMGWSRQAPGKERELVATISNSGGRTYYADSVKGRFTISRDNAKNTVYLQMNSLKPEDTAVYYCAADHPAFGPGYSFDYWGQGTQVTVSS”, the “polyreactivity (PSR sort gate)” value was “low polyreactivity”.
On to “QVQLVESGGGLVQAGGRLRLSCAASGSTFGLNAMGWYRQAPGTERELVAAITSRGTRTYYADSVKGRFTISRDNAKNTVYLQMNSLKTEDTAGYKCAKDSGATRYGEYDYWGQGTQVTVSS”, for which the “polyreactivity (PSR sort gate)” value is “low polyreactivity”.
In the case of “QVQLVESGGGLVQAGGRLRLSCAASGSTFLSNDMGWYRQAPGKERELVAAISQSGGNTYYADSVKGRFTISRDKAKNTVYLQMNSVKPEDTAVYYWAALDYWVQGTQVTVSS” it was “low polyreactivity”; in that of “QVQLVESGGGLVQAGGRLRLSCAASGSTFVLNDRGWYRQPPGKEREFVAAIDTSGGTTSYADSVKGRFTISRDNAKNTVYLQMNSLKPEDTAVYYCAALWFTRVHLFDSWGQGPQVTVSS”, “low polyreactivity”; in that of “QVQLVESGGGLVQAGGRLRLSCAASGSTIKFNAMGWYRQAPGKERELVAAISRGGRTNYADSVKGRFTISRDNAKYTVYLQMNSLKPEDTAVYKCAKDVAGLFHVGALYYYWGQGTQVTVSS”, “low polyreactivity”.
Consider “QVQLVESGGGLVQAGGRLRLSCAASGSTIPPSAMGWYRQSPGKERELVAAITSGGSTYYADSVKGRLTISRDNAKNTVYIQLNSLKPEDTAVYYCNADQQTIRSAKNDYWGQGTQVTVSS”, for which the “polyreactivity (PSR sort gate)” value is reported as “low polyreactivity”.
For the sequence “QVQLVESGGGLVQAGGRLRLSCAASGSTITYYTMGWYRQAPGKERELVAAISGSGGRTYYADSVKGRFTISRDNAKNTVYLQMNSLKPEDTAVYYCAAVYQLSRYDYWGQGTQVTVSS”, the “polyreactivity (PSR sort gate)” value is “high polyreactivity”.
The same measure for “QVQLVESGGGLVQAGGRLRLSCAASGSTLSLYDMGRYRQAPGKERELVAAITSSGGTYYADSVKGRFTISRDNAKNTVFLQMKSLKPEDTAVYYCNAYAKDARSYGFHRVNYWGQGTQVTVSS”: “high polyreactivity”; for “QVQLVESGGGLVQAGGRLRLSCAASGSTNYRYAMRWYRQAPGKERELVATISRTGARTNYADSVKGRFTISRDNAKNTVYLQMNSLKPEDTAVYYCAASAPYIYYWGQGTQVTVSS”: “high polyreactivity”.
The same measure for “QVQLVESGGGLVQAGGRLRLSCAASGSTSTLYAMGWYRQAPGKERELVAAISKSGGRTYYADSVKGRFTSSRDNAKNTVDLQMNSLKPEDTAVYYCAALAVYPRRFDYWGQGTQVTVSS”: “high polyreactivity”.
In the case of “QVQLVESGGGLVQAGGRLRLSCAASGYIFKNYAMGWDRQAPGKERELVATINYSGGGTYYADSVKGRFTISRDNAKNTVYLQMNSLKQEDTAVYYCAAREKYISYSYYYWGQGTQVTVSS” it was “high polyreactivity”; in that of “QVQLVESGGGLVQAGGRLRLSCAASVGIFYYYAMGWYRQAPGKERELVATITYTGGSTYADSVKGRFTISRDNAKNTVYLQMNSLKPEDTAVYYCAADGRSRSYYGYDHWGQGTQVTVSS”, “low polyreactivity”.
In the case of “QVQLVESGGGLVQAGGRLRLSCAASVRTFYYYVMGWYRQEPGNERELVAAISSGGSTYYADSVKGRFTISRDNAKNTVYLQMNSLKPEDTAVYYGAATKRYRDSYDYDYWGQGTQVTVSS”, the “polyreactivity (PSR sort gate)” value was “high polyreactivity”.
For the sequence “QVQLVESGGGLVQAGGRLRLSCAAYGSIFDFYAMGWYRQAPGKERELVAAISGSGGSTYYADSVKGRFTISRDNAKNTVYLQMNSLKPEDTEVYYCSYYYWGQGTQETVSS”, the “polyreactivity (PSR sort gate)” value is recorded as “low polyreactivity”.
The same measure for “QVQLVESGGGLVQAGGRLRLSCADSGSTFLYNAMGWYRQAPGKERELVAAITSDGSTSYADSVKGRFTISRDNAKNTVYLQMNSLKPEDTALYYSAAYGFQHLSSLPFSRHNYWGQGTQVTVSS”: “low polyreactivity”.
Regarding “QVQLVESGGGLVQAGGRLRLSCADSGSTFWSYAIGWYRQSPGKEREFVAAISSSDDSTYYADSVKGRFTISRDNAKNTVYLQMNSLKPEDTAVYYCATSWYIYPFDYWGQGTQVTVSS”, the “polyreactivity (PSR sort gate)” value is reported as “low polyreactivity”.
As to “QVQLVESGGGLVQAGGRLRLSCAPSGLIFYGYAMGWYRQAPGKERELVAAISGSGGRTYYADSVKGRYTISRDNAKNTVYLEMNSLKPEDSAVYYCAGKVPRFGAPGVNYWGQGTQVTVSS”, the “polyreactivity (PSR sort gate)” value is “high polyreactivity”.
In the case of “QVQLVESGGGLVQAGGRLRLSCPASGLIFSYYAMGWYRQEPGKERELVAAISRGGSTNYADSVKGRFTISRDNAKNTVYLQMNSLKPEDTAVYYCAARFVLRRDYGYWGQGTQVTVSS” it was “high polyreactivity”; in that of “QVQLVESGGGLVQAGGRLRLSCPASGRTFPPYAMGWYRQAPGKERELVGAISRRAGTTYYADSVKGRFTISRDNAKNTVYLQMNSLKPEDTAVYYCAALTESSSYGYWGLGTQVTVSS”, “low polyreactivity”; in that of “QVQLVESGGGLVQAGGRLRLSSAASGFIFAYNAMGWYRQGPGKERELVASIRTRGGSTYYADSVKGRFTISRDNAKNTVYLQMNSLKPEDTSVYYCAARPFPRRYDYWGQGSQVTVSS”, “low polyreactivity”.
On to “QVQLVESGGGLVQAGGRLRLSSAASGFIFYYYAMGWYREAPGKERELVAAISTDGGSTFYADSVKGRFTISRDNAKNTVYLQMNSLKPEDTAVYYCNAPYYGWGYWPLEYIRYEYWGQGTQVTVSS”, for which the “polyreactivity (PSR sort gate)” value is “low polyreactivity”.
As to “QVQLVESGGGLVQAGGRLRLSSAASGSTFGYYAMGWYRQAPGKERELVAAISAGGGSTYYADSVKGRFTISRDNAKNTVYLQMISLKPEDTAVYYCAARGPHIPVKTYDYWGQGTQVTVSS”, the “polyreactivity (PSR sort gate)” value is “high polyreactivity”.
In the case of “QVQLVESGGGLVQAGGRLRLTCAASARTIVLNPMGWYRQAPGKERELVAAISSGGSTNYADSVKGRFTISRDNAKNTVYLQMNSLNPEDTAVYYCAGQDVNLYSAYYYWGQGTQVTVSS” it was “low polyreactivity”; in that of “QVQLVESGGGLVQAGGRLRLTCAASGCTFFTNSMGWYRQAPGKERELFGAITVSGSTYYADSVKGRFTFSRDNAKNTVYLQMNSLNPEDTAVYYCAAVFWRRQYGYYIFTTLDYWGHGTQVTVSS”, “high polyreactivity”.
The same measure for “QVQLVESGGGLVQAGGRLRLTCAASGLTFERHAMGWYSQARGKERDVVAAWSGGGTYYADSVKGRFTISRDNAKNTVYLHLNSLKPQDTAVYYCAADYRYYLSIGVNSWGQGTQVTVSS”: “low polyreactivity”; for “QVQLVESGGGLVQAGGRLRLTCAASGSIFGSYAMGWYRQEPGIERELVAAIRGRGGNTYYADSVKGRFTISRDNAKNTVYLQMNSLKPQDTAVYYCAAQSFAQYGWRYGYWGQGTQVTLSS”: “high polyreactivity”; for “QVQLVESGGGLVQAGGRLRVSCAASGRTFYYYGMGWYRQAPGKESELVATISWSGGSTYYADSVKGRFTISRDNAKNTVYLQMNSLKPEDTEVYYCAADGQFLYDHIEVDYWGQGTQVTVSS”: “low polyreactivity”.
The same measure for “QVQLVESGGGLVQAGGSDRLSCAASGNTFYPNAMGWYRPAPGKERELVAAITTSGGTTYYADSVKGRFTISRDNAKNTVYLQMNSLKPEDTAVYYCAAYWSRDKYDYWGQGTQVTVSS”: “low polyreactivity”; for “QVQLVESGGGLVQAGGSFRLTCAASGRIFSPNAMGWYRQATGKEREFVAAINDRGGNTYYADSVKGRFTISRDNAKNTVYLQMNSLKPEDTAVYYCAATVTVFYTRYYYWGQGTQVTVSS”: “high polyreactivity”.
